Where a chain is given by its changes, count along the chain named. Names and notes keep the numbering of the source.
B1: Bis-40E9-L2H3 (bispecific antibody, human IgG1, kappa, L234A L235A)
heavy 1: not shown
heavy 2: EVQLVQSGAEVKKPGASVKVSCKASGYTFTSYVIHWVRQAPGQGLEWMGYFNPYNDGTKYNEEFKGRVTLTSDKSTSTAYMELRSLRSDDTAVYYCARGGVRRYFDVWGQGTTVTVSSASTKGPSVFPLAPSSKSTSGGTAALGCLVKDYFPEPVTVSWNSGALTSGVHTFPAVLQSSGLYSLSSVVTVPSSSLGTQTYICNVNHKPSNTKVDKKVEPKSCGGGGSGGGGSEVQLVQSGAEVKKPGSSVKVSCKASGYTFSSYVIHWVRQAPGQCLEWMGYINPYNDVIKYNEKFKGRVTLTSDKSTSTAYMELSSLRSEDTAVYYCARDSYYSYDGFAYWGQGTLVTVSSGGGGSGGGGSGGGGSGGGGSEIVLTQSPDFQSVTPKEKVTITCSASSSVSYMHWYQQKPDQSPKRLIYDTSKLASGVPSRFSGSGSGTDFTLTINSLEAEDAATYYCQQWSSNPPTFGCGTKVEIKGGGGSGGGGSDKTHTCPPCPAPEAAGGPSVFLFPPKPKDTLMISRTPEVTCVVVDVSHEDPEVKFNWYVDGVEVHNAKTKPREEQYNSTYRVVSVLTVLHQDWLNGKEYKCKVSNKALPAPIEKTISKAKGQPREPQVCTLPPSREEMTKNQVSLSCAVKGFYPSDIAVEWESNGQPENNYKTTPPVLDSDGSFFLVSKLTVDKSRWQQGNVFSCSVMHEALHNHYTQKSLSLSPGK
light: DIQMTQSPSSLSASVGDRVTITCRASQDIGSNLNWLQQKPGKAIKRLIYATFGLDSGVPSRFSGSRSGTDFTLTISSLQPEDFATYYCQQYASFPYTFGGGTKVEIKRTVAAPSVFIFPPSDEQLKSGTASVVCLLNNFYPREAKVQWKVDNALQSGNSQESVTEQDSKDSTYSLSSTLTLSKADYEKHKVYACEVTHQGLSSPVTKSFNRGEC
B2: Bis-40E9-L2H16 (bispecific antibody)
heavy 1: not shown
heavy 2: B1 heavy 2 with S262D
light: B1 light
notes: Fab-scFv-Fab format with LALA mutations; copies: 1 + 1 + 2
B3: Bis-40E9-L2H3-Y101F.H (bispecific antibody)
heavy 1: not shown
heavy 2: B1 heavy 2 with Y332F
light: B1 light
notes: Fab-scFv-Fab format with LALA mutations
B4: Bis-40E9-L2H7 (bispecific antibody)
heavy 1: not shown
heavy 2: B1 heavy 2 with Y285G, D287G, Y333S
light: B1 light
notes: as for B3
B5: Bis-40E9-L2H14 (bispecific antibody)
heavy 1: not shown
heavy 2: B1 heavy 2 with D330E
light: B1 light
notes: as for B2
B6: Bis-40E9-L2H11 (bispecific antibody)
heavy 1: not shown
heavy 2: B1 heavy 2 with D336R, G337A
light: B1 light
notes: as for B2
B7: Bis-40E9-L2H3-N55S.H (bispecific antibody, human IgG1, kappa, L234A L235A)
heavy 1: not shown
heavy 2: B1 heavy 2 with N286S
light: B1 light
B8: Bis-40E9-L2H3-D105R.H (bispecific antibody)
heavy 1: not shown
heavy 2: B1 heavy 2 with D336R
light: B1 light
notes: as for B3
B9: Bis-40E9-L2H3-D56G.H (bispecific antibody)
heavy 1: not shown
heavy 2: B1 heavy 2 with D287G
light: B1 light
notes: as for B3
B10: Bis-40E9-L2H3 (bispecific antibody, human IgG1, kappa, L234A L235A)
heavy 1: not shown
heavy 2: B1 heavy 2
light: B1 light
notes: Fab-scFv-Fab, LALA; also called humanized 2+1 bispecific antibody with scFv 40E9-L2H3

Molecular target: T1, GPRC5D on MM.1S cells (human, UniProt Q9NZD1 1-345)
T1 construct: whole, on cells; MM.1S is called a GPRC5D positive expressed cell line and human multiple myeloma cells; also called G-protein coupled receptor family C group 5 member D
T1 sequence (Q9NZD1 whole entry): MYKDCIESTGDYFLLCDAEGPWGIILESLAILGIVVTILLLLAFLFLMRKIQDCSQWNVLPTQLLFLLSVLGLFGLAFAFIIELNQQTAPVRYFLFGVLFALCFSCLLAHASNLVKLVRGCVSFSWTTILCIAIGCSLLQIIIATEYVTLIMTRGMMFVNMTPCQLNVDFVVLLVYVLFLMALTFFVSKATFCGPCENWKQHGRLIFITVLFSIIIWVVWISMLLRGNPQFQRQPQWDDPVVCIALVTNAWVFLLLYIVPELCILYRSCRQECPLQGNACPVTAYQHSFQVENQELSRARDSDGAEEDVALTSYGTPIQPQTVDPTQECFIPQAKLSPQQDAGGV
Test: FACS on MM.1S cells
Method: To evaluate the binding affinity of the generated chimeric bispecific antibody to T cells, the isolated CD3⁺ T cells were stained by antibodies and the binding affinity was determined by FACS analysis. The protocol of FACS analysis is described as follows: [0785] (a) CD3⁺ T cells were isolated from normal donors. [0786] (b) The isolated CD3⁺ T cells were washed by Staining Buffer (PBS+1% BSA) in round bottom 96-well plate. […] (c) Antibody dilutions were added to each well and mixed with the CD3+ T cells, incubated at 4 degrees for 1 hour. […] (d) Cells were spined at 300 g for 3 minutes, then the supernatants were discarded. [0789] (e) Cells were washed with Staining Buffer. [0790] (f) Step (d) was repeated, and the cells were incubated with secondary antibody in Staining Buffer for 0.5 hours at 4 degrees. [0791] (g) After incubation, step (d)-(e) were repeated. [0792] (h) Cells were resuspended in Staining Buffer and fluorescence signals were recorded by flow cytometry.
The binding affinities of the generated humanized Fab-scFv-Fab bispecific antibodies to MM.1S were evaluated by FACS analysis. The protocol for FACS analysis is identical to that described in Example 1.2, except that MM.1S were used in this example.

Binder	Ratio of EC50 (relative to ATG-Bis-40E9) [ratio]	Ratio of Top MFI (relative to ATG-Bis-40E9) [ratio]
B1	1.19	0.997
B2	0.913	0.972
B3	1.27	0.954
B4	2.5	1.25
B5	1.02	0.975
B6	5.78	1.47

Molecular target: T2, CD3 on Jurkat cells (UniProt P07766 23-207; P04234 22-171; P09693 23-182)
T2 construct: whole, on cells; On the cell, CD3 stands in the TCR-CD3 complex; also called cluster of differentiation 3
T2 sequence (P07766 23-207, chain 1 of 3): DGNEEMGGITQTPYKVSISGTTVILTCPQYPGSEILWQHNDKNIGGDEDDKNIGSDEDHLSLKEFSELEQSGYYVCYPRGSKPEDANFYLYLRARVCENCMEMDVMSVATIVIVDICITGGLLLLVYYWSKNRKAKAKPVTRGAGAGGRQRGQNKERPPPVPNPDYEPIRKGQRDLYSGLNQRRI
T2 sequence (P04234 22-171, chain 2 of 3): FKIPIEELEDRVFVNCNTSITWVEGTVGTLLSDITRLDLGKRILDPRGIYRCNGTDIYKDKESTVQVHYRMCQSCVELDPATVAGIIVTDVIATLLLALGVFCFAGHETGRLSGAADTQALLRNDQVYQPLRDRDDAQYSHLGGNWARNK
T2 sequence (P09693 23-182, chain 3 of 3): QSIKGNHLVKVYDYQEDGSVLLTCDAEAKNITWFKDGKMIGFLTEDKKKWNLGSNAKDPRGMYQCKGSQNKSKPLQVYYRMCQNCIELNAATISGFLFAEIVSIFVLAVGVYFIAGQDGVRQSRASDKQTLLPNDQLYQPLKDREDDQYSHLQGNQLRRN
Test: FACS on Jurkat cells
Method: (§1) The binding affinities of the generated humanized Fab-scFv-Fab bispecific antibodies were determined by FACS analysis. […] (a) Jurkat cells were washed by Staining Buffer (PBS+1% BSA) in round bottom 96-well plate. [0833] (b) Antibody dilutions and cells were added to each well, incubated at 4 degrees for 1 hour. [0834] (c) Cells were spined down at 300 g for 3 minutes, and the supernatants were discarded. [0835] (d) Cells were washed with Staining Buffer. […] (e) Step (d) was repeated and the cells were incubated for 0.5 hours at 4 degrees with secondary antibody in Staining Buffer. [0837] (f) After incubation, step (d)-(e) were repeated. […] (g) Staining Buffer was added and fluorescence signals were recorded by flow cytometry.
The binding affinities of the generated humanized Fab-scFv-Fab bispecific antibodies were determined by FACS analysis. The protocol for FACS analysis is identical to that described in Example 3.2, except that different test antibodies were used.

Binder	Ratio of EC50 (relative to ATG-Bis-40E9) [ratio]	Ratio of Top MFI (relative to ATG-Bis-40E9) [ratio]
B1	1.65	0.77
B7	167	
B8	4.53	1.17
B2	2.97	0.62
B9	2.41	0.55
B3	13.6	
B4	1.24	0.68
B5	2.31	0.83
B6	7.88	6.35

Molecular target: T3, GPRC5D (G-protein coupled receptor family C group 5 member D), human, on multiple myeloma cell lines (human, UniProt Q9NZD1 1-345)
T3 sequence (Q9NZD1 whole entry): as the sequence (Q9NZD1 whole entry) above
Test: cell-based or functional assay

Binder	IC50 (nM), T-Cell Dependent Cytotoxicity, MM.1S [nM]	IC50 (nM), T-Cell Dependent Cytotoxicity, MOLP-8 [nM]	IC50 (nM), T-Cell Dependent Cytotoxicity, RPMI8226 [nM]	Top (%), T-Cell Dependent Cytotoxicity, MM.1S [%]	Top (%), T-Cell Dependent Cytotoxicity, MOLP-8 [%]	Top (%), T-Cell Dependent Cytotoxicity, RPMI8226 [%]
B10	0.00571	0.00166	0.06	66.8	71.9	11.5

Molecular target: T3, GPRC5D (G-protein coupled receptor …)
Test: cell-based or functional assay
Remark: another data set of the same source

Binder	EC50 (nM), luciferase assay, MM.1S [nM]	Top (RLU), luciferase assay, MM.1S [RLU]	Top (RLU), luciferase assay, MOLP-8 [RLU]
B10	0.0898	1940	221

Molecular target: T1, GPRC5D on MM.1S cells
Test: cell-based or functional assay

Binder	Ratio of IC50 (relative to ATG-Bis-40E9), MM.1S cytotoxicity [ratio]	Ratio of Top cytotoxicity (relative to ATG-Bis-40E9), MM.1S cytotoxicity [ratio]
B1	0.23	1.04
B7	1.06	1
B8	0.86	1.01
B2	4.93	0.98
B9	0.99	1
B3	1.94	1.03
B4	3.21	0.98
B5	10.4	0.98
B6	13.7	1

Molecular target: T1, GPRC5D on MM.1S cells
Test: cell-based or functional assay
Remark: another data set of the same source

Binder	Ratio of EC50 (relative to ATG-Bis-40E9), luciferase assay on MM.1S [ratio]	Ratio of Top RLU (relative to ATG-Bis-40E9), luciferase assay on MM.1S [ratio]
B1	3.25	1.09
B7	1.33	0.75
B8	1.32	0.79
B2	6.02	0.84
B9	0.81	1.01
B3	4.89	1.57
B4	2.79	0.85
B5	5.77	0.81
B6	26.2	1.24

Molecular target: T4, CD3 (Cluster of Differentiation 3 protein), human, on T cells / Jurkat cells (human, UniProt P07766 23-207; P04234 22-171; P09693 23-182)
T4 construct: whole, on cells; part of the TCR-CD3 complex; also called human CD3
T4 sequence (P07766 23-207, chain 1 of 3): as the sequence (P07766 23-207, chain 1 of 3) above
T4 sequence (P04234 22-171, chain 2 of 3): as the sequence (P04234 22-171, chain 2 of 3) above
T4 sequence (P09693 23-182, chain 3 of 3): as the sequence (P09693 23-182, chain 3 of 3) above
Test: FACS, Jurkat cells, antibody at 50 µg/ml
Method: as §1

Binder	MFI (50 µg/ml) [MFI]
B10	341
